For one experiment, the target named is T1, FLAG-PGC1α WT (human, UniProt Q9UBK2 1-798).
T1 construct: also called FLAG-tagged human (h) PGC1α wild-type; FLAG-PCG1α WT; not shown: FLAG tag
T1 sequence (looked up): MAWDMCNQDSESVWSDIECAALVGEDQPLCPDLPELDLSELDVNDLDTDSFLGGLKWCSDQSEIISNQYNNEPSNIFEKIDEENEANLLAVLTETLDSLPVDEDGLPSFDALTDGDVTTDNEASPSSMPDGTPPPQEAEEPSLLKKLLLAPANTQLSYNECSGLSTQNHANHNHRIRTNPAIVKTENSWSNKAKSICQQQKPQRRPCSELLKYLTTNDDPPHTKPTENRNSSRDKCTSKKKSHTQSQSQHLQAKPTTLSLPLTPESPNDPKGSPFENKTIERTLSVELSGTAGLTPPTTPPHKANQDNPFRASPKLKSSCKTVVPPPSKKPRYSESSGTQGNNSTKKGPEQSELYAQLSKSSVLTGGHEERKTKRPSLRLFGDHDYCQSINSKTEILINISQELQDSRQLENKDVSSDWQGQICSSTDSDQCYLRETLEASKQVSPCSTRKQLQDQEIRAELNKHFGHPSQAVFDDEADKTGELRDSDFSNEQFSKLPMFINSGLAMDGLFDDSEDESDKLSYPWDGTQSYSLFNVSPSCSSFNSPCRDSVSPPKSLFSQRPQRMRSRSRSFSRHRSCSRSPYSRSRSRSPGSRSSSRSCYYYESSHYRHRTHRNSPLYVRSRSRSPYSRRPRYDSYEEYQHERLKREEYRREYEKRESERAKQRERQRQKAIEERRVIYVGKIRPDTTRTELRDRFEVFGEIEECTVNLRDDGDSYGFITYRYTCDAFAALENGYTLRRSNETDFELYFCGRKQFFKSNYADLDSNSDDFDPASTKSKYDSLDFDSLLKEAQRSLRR
As to the kind of experiment: anti-FLAG IP from C2C12 knock-down cells, western blot. For orientation: In western blotting, separated proteins are transferred to a membrane and probed.

In experiment [1] the target is T2, CBP80/CBP20 complex (human, UniProt Q09161 20-790; P52298 1-156, limits assumed).
T2 construct: Used in the fluorescence polarization assays; In the crystal it also carried the cap analogue (m7GpppG / m7GpppA); also called CBC complex; CBC
T2 sequence (looked up) 1: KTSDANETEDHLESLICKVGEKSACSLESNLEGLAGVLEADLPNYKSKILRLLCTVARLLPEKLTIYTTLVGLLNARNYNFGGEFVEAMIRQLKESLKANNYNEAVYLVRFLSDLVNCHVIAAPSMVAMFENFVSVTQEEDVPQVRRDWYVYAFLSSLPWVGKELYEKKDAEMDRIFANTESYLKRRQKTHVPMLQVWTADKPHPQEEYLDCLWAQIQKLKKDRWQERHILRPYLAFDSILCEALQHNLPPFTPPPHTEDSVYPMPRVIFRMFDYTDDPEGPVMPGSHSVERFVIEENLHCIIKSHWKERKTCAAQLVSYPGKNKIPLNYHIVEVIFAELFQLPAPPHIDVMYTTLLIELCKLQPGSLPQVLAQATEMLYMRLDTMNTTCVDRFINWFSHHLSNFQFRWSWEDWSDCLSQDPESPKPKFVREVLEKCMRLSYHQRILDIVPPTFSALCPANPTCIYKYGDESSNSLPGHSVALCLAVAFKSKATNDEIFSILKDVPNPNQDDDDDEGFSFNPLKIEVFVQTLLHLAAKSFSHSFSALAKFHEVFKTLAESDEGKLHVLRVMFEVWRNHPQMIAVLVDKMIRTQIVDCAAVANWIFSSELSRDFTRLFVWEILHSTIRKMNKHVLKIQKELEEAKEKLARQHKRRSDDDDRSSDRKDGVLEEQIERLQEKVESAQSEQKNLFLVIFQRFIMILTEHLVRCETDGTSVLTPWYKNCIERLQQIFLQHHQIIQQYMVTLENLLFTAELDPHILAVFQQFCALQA
T2 sequence (looked up) 2: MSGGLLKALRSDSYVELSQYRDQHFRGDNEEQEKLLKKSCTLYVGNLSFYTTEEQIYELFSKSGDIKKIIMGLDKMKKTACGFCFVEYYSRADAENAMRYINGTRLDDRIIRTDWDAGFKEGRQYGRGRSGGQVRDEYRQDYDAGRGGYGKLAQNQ
Description: FP competition assay; 1 µM FITC-Ahx-…-NH2 as competitor, 30 µM CBP80/CBP20 complex. As to the method:
(§1) The relative activity of the PGC1β mimics toward disrupting the interaction between CBC and the fluorescein-conjugated PGC1β-derived peptide was measured in a competition assay. Briefly, a fixed amount of CBC and fluorescein-conjugated PGC1β-derived peptide are incubated with increasing amounts of the PGC1β mimic (FIG. 11A). From the resulting dose-dependent inhibition curves, the in vitro CBC inhibitory activity of the PGC1β mimic compound is measured based on their respective half-maximal inhibitory concentration (IC₅₀) (FIG. 5B). Using this assay, various PGC1β mimics were evaluated for their relative ability to target CBC and disrupt its binding interaction with PGC1β. […] Short peptides derived from the C-terminal domain of PGC1β and PRC proteins, two other members of the PGC1 family of transcriptional coactivators, were also to bind CBC and inhibits its interaction with the fluorescein-labeled PGC1β peptide with IC₅₀ values in the low micromolar range.
^aAc = acetyl; Biot = biotin; Ahx = 6-aminohexanoic acid; Aib = 2-aminoisobutyric acid; CrtDab = N^γ-crotonyl-2,4-diaminobutyric acid. C-terminal ‘-NH₂’ refers to amidated C-terminal end of the peptide. ^bIC₅₀ was determined using fluorescence polarization based competition assay in the presence of 1 μM of FITC-labeled PGC1β (FITC-Ahx-[…]-NH₂, where FITC is fluorescein-isothiocyanate) and 30 μM of the CBP80/CBP20 complex in HEPES buffer (10 mM HEPES, 50 mM NaCl, 5 mM BME, pH 7.5).
(§2) IC₅₀ values were determined by adapting the fluorescence polarization assay described above to a competition format. 1 μM of the FITC-labeled PGC1β peptide (FITC-Ahx-[…]-NH₂) was incubated with 30 μM of the CBP80-CBP20 complex in HEPES Buffer (10 mM HEPES [pH 7.5], 50 mM NaCl and 5 mM 2-mercaptoethanol).

Experiment [2] concerns the target T2, CBP80/CBP20 complex. As to the kind of experiment: FP competition assay, alanine scan. As to the method:
To examine the tolerance of this compound to sequence modification, an alanine-scanning library was synthesized. This library of PGC1β mimics consisted of 11 linear peptides (PGC1β-2A through PGC1β-12A; Table 3), in which each amino acid residue of the parent PGC1β-wt peptide was replaced with alanine (or with glycine, when the parent residue is alanine). The peptides were tested for their ability to inhibit the CBC-PGC1β interaction using the aforementioned fluorescence polarization-based competition assay. […] These compounds include PGC1β mimics containing non-canonical amino acids such as 2-aminoisobutyric acid (Aib) and […]-crotonyl-2,4-diaminobutyric acid (CrtDab). Aib is an α,α-disubstituted amino acid which is well known for its ability to stabilize α-helical peptide structures as well as increase peptide stability against proteolysis.
as §2

Experiment [3] addresses T2, CBP80/CBP20 complex. Description: FP competition assay; FITC-labeled PGC1β peptide as competitor. As to the method: as §1
IC₅₀ values were determined by adapting the fluorescence polarization assay described above to a competition format. […] Half-maximal inhibitory concentration (IC₅₀) values were calculated from the resulting inhibition curves as given by dose-dependent decrease in the fluorescence polarization signal. […]

In experiment [4] the target is T2, CBP80/CBP20 complex. As to the kind of experiment: fluorescence polarization; 1 µM FITC peptide titrated with CBC complex (1-80 µM), 1:1 model. The procedure:
In order to develop a first set of PGC1β mimics, a series of linear peptides encompassing the CBP80-binding domain of PGC1β were designed and synthesized (Table 3). The ability of these peptides to bind to CBP80 in complex with CBP20 (also referred herein as ‘CBC complex’ or simply ‘CBC’) was assessed using a fluorescence polarization assay in the presence of fluorescein-conjugated PGC1β-derived peptide (FITC-Ahx-[…]-NH₂ (SEQ ID NO:XX), where FITC is fluorescein-isothiocyanate and Ahx is 6-aminohexanoic acid).
The assay was performed in a 15-μl scale in a low-volume 384-well black plate on a Tecan M1000 Plate Reader using 470/20 nm excitation and 520/20 nm emission filters. All proteins and peptides were dissolved and diluted in HEPES buffer (50 mM NaCl, 10 mM HEPES […]). Fluorescently labelled PGC1β peptide (FITC-Ahx-[…]-NH₂) was used at 1 μM final concentration, and fluorescence polarization data were recorded at increasing concentration of the CBC complex (1-80 μM) after a 10-min incubation. The resulting concentration-dependent FP curve was fit to a 1:1 binding model to yield dissociation constant (KD) values. Measurements were performed at least in duplicates.
For orientation: In fluorescence polarisation assays a small probe gives low polarisation when free and higher when bound to something large.

Primed or numbered codes have the meaning given here. * marks the point of attachment. Biotin = O=C1N[C@H]2[C@H](CS[C@H]2CCCCC(=O)*)N1; FITC′ = fluorescein-isothiocyanate; Ahx = NCCCCCC(=O)O Some results are limits rather than exact numbers.

What is called IC50 is the concentration needed to halve the response being measured. Lower therefore signals greater potency in that assay. In general, Kd refers to the equilibrium constant for the complex coming apart. Higher therefore signals a looser complex.

B1: endogenous CBP80 of mouse C2C12 myoblasts (other, UniProt Q3UYV9 1-790, looked up)
chain: MSRRRHSYENDGGQPHKRRKTSDANETEDHLESLICKVGEKSACSLESNLEGLAGVLEADLPNYKSKILRLLCTVARLLPEKLTIYTTLVGLLNARNYNFGGEFVEAMIRQLKESLKANNYNEAVYLVRFLSDLVNCHVIAAPSMVAMFENFVSVTQEEDVPQVRRDWYVYAFLSSLPWVGKELYEKKDAEMDRIFSTTESYLKRRQKTHVPMLQVWTADKPHPQEEYLDCLWAQIQKLKKDRWQERHILRPYLAFDSILCEALQHNLPPFTPPPHTEDSVYPMPRVIFRMFDYTDDPEGPVMPGSHSVERFVIEENLHCIIKSYWKERKTCAAQLVSYPGKNKIPLNYHIVEVIFAELFQLPAPPHIDVMYTTLLIELCKLQPGSLPQVLAQATEMLYMRLDTMSTTCVDRFINWFSHHLSNFQFRWSWEDWSDCLTQDLESPKPKFVREVLEKCMRLSYHQHILDIVPPTFSALCPANPTCIYKYGDESSNSLPGHSVALCLSVAFKSKATNDEIFSILKDVPNPNQVDDDDEGFRFNPLKIEVFVQTLLHLAAKSFSHSFSALAKFHEVFKTLAESDKGKLHVLRVMFEVWRNHPQMIAVLVDKMIRTQIVDCAAVANWIFSSELSRDFTRLFVWEILHSTIRKMNKHVLKIQKELEEAKEKLARQHKRRSDDDDRSSDRKDGALEEQIERLQEKVEAAQSEQKNLFLVIFQRFIMILTEHLVRCETDGTSILTPWYKNCIERLQQIFLQHHQTIQQYMVTLENLLFTAELDPHILAVFQQFCALQA
Regarding B1, in the experiment with FLAG-PGC1α WT, the binding result was “binds”.

Molecule Ac-MDFDSLLKAAQQS-NH2 [PGC1β-9A (Ac-MDFDSLLKAAQQS-NH2)] returned an IC50 with CBP80/CBP20 complex [1] of 33 µM. Also, the “fold improvement of inhibitory activity against PGC1β-wt” value with CBP80/CBP20 complex [2] was at most 2 fold.

B2: Biot-PGC1β (Biot-Ahx-SGG-AMDFDSLLKEAQQSLH-NH2) (peptide)
peptide: {Biotin-Ahx}-SGGAMDFDSLLKEAQQSLH-NH2
SMILES: CSCC[C@H](NC(=O)[C@H](C)NC(=O)CNC(=O)CNC(=O)[C@H](CO)NC(=O)CCCCCNC(=O)CCCC[C@@H]1SC[C@@H]2NC(=O)N[C@@H]21)C(=O)N[C@@H](CC(=O)O)C(=O)N[C@@H](Cc1ccccc1)C(=O)N[C@@H](CC(=O)O)C(=O)N[C@@H](CO)C(=O)N[C@@H](CC(C)C)C(=O)N[C@@H](CC(C)C)C(=O)N[C@@H](CCCCN)C(=O)N[C@@H](CCC(=O)O)C(=O)N[C@@H](C)C(=O)N[C@@H](CCC(N)=O)C(=O)N[C@@H](CCC(N)=O)C(=O)N[C@@H](CO)C(=O)N[C@@H](CC(C)C)C(=O)N[C@@H](Cc1c[nH]cn1)C(N)=O
notes: also called Biot-PGC1β peptide; biotinylated version of the PGC1β peptide
As to B2, the results for the IC50 with CBP80/CBP20 complex [1] and in the experiment with CBP80/CBP20 complex [3] were 35 µM and 31 µM, respectively.

B3: FITC-Ahx-AMDFDSLLKEAQQSLH-NH2 (peptide)
peptide: {FITC′-Ahx}-AMDFDSLLKEAQQSLH-NH2
notes: Tracer of the FP assays; also called fluorescein-conjugated PGC1β-derived peptide; FITC-labeled PGC1β peptide
In turn, B3 had a Kd with CBP80/CBP20 complex [4] of 47 µM.

The values above are taken from patent publication US20180362587A1, “Compositions and Methods for Inhibiting CBP80 Binding to PGC1 Family of Co-Activators” (University of Rochester, priority 2015, published 2018).
